Measured values: the DeepSol protein solubility set

Assay: soluble on expression in E. coli; label from the status in PepcDB or PDB records

Question: Which “soluble on expression in E. coli” value does the source give for “MGSDKIHHHHHHMKIAVVGAGLTGLKTAKELAEHAKVVVFEPDDVGGLVATFREFSIEKFYHHCFRDDAFLLEEIKRCGLKSKLVWKIAKTGFAANGKIYPLNTPFEILRYPLLTFGEKIRLARFTLKSRKLNYEDFDDVGVSEGIREELGEGLLERFFMPLLRSKFGENAEKVSYAWLLGRVAIRSNRKYSGEEIGYIRHGFQQLVDKMAEGLEIRRERARIRKNARWDVNGEDFDAVVYTAPLSELGELAEKLGIPEVRYQSSVCALIGAEETLTENIYWTNIADKMSFGAVIEHTNFMPFEDYGIHLMYLAAYSTPDGWLFNLSDKEIEKLFLSDLRKLGFKTESVRFVRVFKAKYSGPIYEKGYRRKITPYRVAEGFYVAGMTSRPNYPERSMNGSIRAGKEVAEQVKEDLL” here?
Answer: The value was “not soluble”.

Question: With “SASTGSQASDIDEIFGFFNDGEPPTKKPRKLLPSLKTKKPRELVLVIGTGISAAVAPQVPALKSWKGLIQALLDAAIDFDLLEDEESKKFQKCLHEDKNLVHVAHDLIQKLSPRTSNVRSTFFKDCLYEVFDDLESKMEDSGKQLLQSVLHLMENGALVLTTNFDNLLELYAADQGKQLESLDLTDEKKVLEWAQEKRKLSVLHIHGVYTNPSGIVLHPAGYQNVLRNTEVMREIQKLYENKSFLFLGCGWTVDDTTFQALFLEAVKHKSDLEHFMLVRRGDVDEFKKLRENMLDKGIKVISYGDDYADLPEYFKRLTCEISTRGTSAGMVREGQLNGSSAAHSEIRGCST” as the sequence, how does the “soluble on expression in E. coli” value read?
Answer: Its value is “soluble”.

Question: For “MRIGQYQLRNRLIAAPMAGITDRPFRTLCYEMGAGLTVSEMMSSNPQVWESDKSRLRMVHIDEPGIRTVQIAGSDPKEMADAARINVESGAQIIDINMGCPAKKVNRKLAGSALLQYPDVVKSILTEVVNAVDVPVTLKIRTGWAPEHRNCEEIAQLAEDCGIQALTIHGRTRACLFNGEAEYDSIRAVKQKVSIPVIANGDITDPLKARAVLDYTGADALMIGRAAQGRPWIFREIQHYLDTGELLPPLPLAEVKRLLCAHVRELHDFYGPAKGYRIARKHVSWYLQEHAPNDQFRRTFNAIEDASEQLEALEAYFENFA”, which “soluble on expression in E. coli” value is on record?
Answer: The value was “not soluble”.

Question: Which “soluble on expression in E. coli” value does the source give for “NLLDDAVKRISEDPPCKCPTKFCVERLSQGRYRVGEKILFIRMLHNKHVMVRVGGGWETFAGYLLKHDPCRMLQISRVDGKTSP” here?
Answer: The value was “soluble”.

Question: For “MAHHHHHHMECYDNTKQKDLQEEHDVVRNFRRYYFQEKEEMHIAAIKSISDVLKNSISETNFELFINMNEAKCKLNNFINNNQTQQDIISVPHSKRMTIYPIISSCDIYHHFVVKKYTHNENNFHVLKNVIENNADEFSASLQKSLETIGSSSNIMFLNKHTTILTHSNSDCVKSLIMDVVKNQNKQVSIYFTCTSQVNLNYEEKEKKFDENFLEELNKENINITKIDLTQVKDIINKIDFVLIGSEIVTDNGGIINKKGIKLISELCLLYKKPFYVTCQAYKFLKIDKNKCSKDFYTFCTQTVTNNFNNIYEFVSPDFITLFYTDIGIFPPSNISYELSKLYINDAFYF”, which “soluble on expression in E. coli” value is on record?
Answer: Its value is “soluble”.

Question: Which “soluble on expression in E. coli” value does the source give for “MDHDKSKRLPPSYYTLLEASQEKETTSTKILAQYLDRSPATVRTQFQRIMEFLDVSSRYGALREAEKRGLIRRNKRATSAHHQENRSSL” here?
Answer: The value was “not soluble”.

Question: For “MTQAADILIAGGGLNGPALALALARNGFSVTVVDGRPAPQRAEPGFDGRAYALALASKRLLAALGLWDGLASQAQPILRVVTADGTTAGGPSPFVLAFDHAEIEEGPMGYLLEDRFLYAAFLAALEAEPRIRLVSGTTVEAQEVGPQGVTVTLSTGAQLSGRLLVGCDGRQSGTARRAGIRRSGWGYGQTALVTAIEHERPHEGTAWQYFLPGGPLAILPLPGGHRSSIVWSESDAAAAGIQRLPDADYLGALRPRFGDFLGSIRLAGDRFTYPLSLSLAHSFVAPRVALVGDAAHGVHPIAGQGLNLGLRDVAALAEVLTLAARRGEDVGSPLVLDRYQQWRRFDATALALGMDMVNRLFSNDNPVMRAGRDLSMGIVNALPGLRRGFIRQAAGLSGDLPRLLQGRPILEHHHHHH”, which “soluble on expression in E. coli” value is on record?
Answer: The value was “not soluble”.

Question: Which “soluble on expression in E. coli” value does the source give for “MSLDLKFTDFLDPRVKSSLGEEEIVFPPYDANQLRDILQHRSDVAFKADALSDDVLPLCAAFAAQEHGDARRALDLLRTAGELAERDQAENVTEDHVRRAQDKIELDRVVEVVRTLPTQSKLVLYAILLLEDNGVHNVNTGEVYNIYKTLCDELDADVEGHHHHHH” here?
Answer: Its value is “soluble”.

Question: With “MEPRFAGYAQKVRDSFARQPVMATLGARIDTLLPGRVELCMPYDRALTQQHGFLHAGIVSTVLDSACGYAAFSLMEEEAAVLTVEFKVNFLNPAEGERFAFRAEVVKPGRTLTVATATAYAFRDGEERAIATMTATLMALIGLEHHHHHH” as the sequence, how does the “soluble on expression in E. coli” value read?
Answer: The value was “soluble”.

Question: With “MGSDKIHHHHHHMNRKVAIVTGTNSNLGLNIVFRLIETEDTNVRLTIVVTSRTLPRVQEVINQIKDFYNKSGRVEDLEIDFDYLLVDFTNMVSVLNAYYDINKKYRAINYLFVNAAQGIFDGIDWIGAVKEVFTNPLEAVTNPTYKIQLVGVKSKDDMGLIFQANVFGPYYFISKILPQLTRGKAYIVWISSIMSDPKYLSLNDIELLKTNASYEGSKRLVDLLHLATYKDLKKLGINQYVVQPGIFTSHSFSEYLNFFTYFGMLCLFYLARLLGSPWHNIDGYKAANAPVYVTRLANPNFEKQDVKYGSATSRDGMPYIKTQEIDPTGMSDVFAYIQKKKLEWDEKLKDQIVETRTPI” as the sequence, how does the “soluble on expression in E. coli” value read?
Answer: Its value is “not soluble”.

Question: For “MGSDKIHHHHHHMVLMKKLMMKGNEAIAESAIRAGCRLYFAYPITPQSEIAEYMARRLPEVGGVFLQTESEIATVNMVYGAACTGKRVMTSTSSPGFSLMQEGISYIAGAELPCVFVDVVRGGPGLGNIQPSQGDYFQAVKGGGHGDYRLIVLAPSTLQEAVDLTQLAFDLADRYRNPVLILADGMIGQMMEPVELPEMRDLSTLPDHSDWALRGARNREPHRIAAFNIDPVGLEKMNKRLQEKYRLIEASEQRWEEYRVDGAEYLMVGYGTMGRILKSVVDSLREEGIPAGLFRPVTLWPFPKRRLKELAKKVQLIFVVEMSSGQMVEDVQISVEGKVPVHFYGRMGGVVPTPEEILFAFKEVRKWK”, which “soluble on expression in E. coli” value is on record?
Answer: The value was “not soluble”.

Question: For “GSADAEYDVVVLGGGPGGYSAAFAAADEGLKVAIVERYKTLGGVCLNVGCIPSKALLHNAAVIDEVRHLAANGIKYPEPELDIDMLRAYKDGVVSRLTGGLAGMAKSRKVDVIQGDGQFLDPHHLEVSLTAGDAYEQAAPTGEKKIVAFKNCIIAAGSRVTKLPFIPEDPRIIDSSGALALKEVPGKLLIIGGGIIGLEMGTVYSTLGSRLDVVEMMDGLMQGADRDLVKVWQKQNEYRFDNIMVNTKTVAVEPKEDGVYVTFEGANAPKEPQRYDAVLVAAGRAPNGKLISAEKAGVAVTDRGFIEVDKQMRTNVPHIYAIGDIVGQPMLAHKAVHEGHVAAENCAGHKAYFDARVIPGVAYTSPEVAWVGETELSAKASARKITKANFPWAASGRAIANGCDKPFTKLIFDAETGRIIGGGIVGPNGGDMIGEVCLAIEMGCDAADIGKTIHPHPTLGESIGMAAEVALGTCTDLPPQKK”, which “soluble on expression in E. coli” value is on record?
Answer: Its value is “soluble”.

Question: Which “soluble on expression in E. coli” value does the source give for “MKGVSRHVFVRIVQAIIMKHLVYCFKLDNDEFNLKNKYKKYKPCVTRVYDDLNTIYRYISNNKIINLEHHHHHH” here?
Answer: Its value is “not soluble”.

Question: Which “soluble on expression in E. coli” value does the source give for “GPGSMRRVVITGLGLVSPLAGDVEYSWKRLLEGKSGVRRITEFDVSDLSCQIAARIPVGDGTNGTYNADLHMESKEQRKVDAFIVYAIAAADQALADAEWFPKSDEDQICTGVLIGSGIGGIEGIVEAGYTLRDKGPRRISPFFIPGRLINLASGYVSIKYGLRGPNHSVVTACSTGAHAIGDAARLIALGDADVMLAGGTESPINRISLAGFSACRALSTCRNDDPERASRPYDVDRDGFVMGEGAAIVVLEELEHAKKRGARIYAEIIGYGLSGDAYHITAPSESGEGAQRSMMAALKRAQVNVSELDYINAHGTSTMADVIELAAVERVLGYYAPQVSMSSTKSSIGHLLGAAGAAEAIFCVLAIRDNIAPATLNLENPSIETKIDLVPHKPRERKIDTVLSNSFGFGGTNASLVMRRFSE” here?
Answer: Its value is “soluble”.

Question: With “MVCIAAKCGNECSQCKHCHYALEQMSALAQGEKTSGLCPKLETCVFNCLTEDVSKVLSCVATRCNVHCYDGDCPSCKMISRRIFSNICKQHSMTTQPQIKYEGTCPNLFMELADDYVAMKKKKL” as the sequence, how does the “soluble on expression in E. coli” value read?
Answer: The value was “not soluble”.

Question: With “GPGSMLRRQLHLSAIGGVSAAAAAVLDGIGPSSAAAATGTLSSSSTSLSVMASVSPLLMPCRGVKLVNPIGKQGSQHYGLEPKLEAGRDTQLKHTEMYDGYTDDFGVFKEGPPVTLRLEYVRSPDHGYSQHILQKDIWSPFQVGANMMSYTPLYYDWKGFSSRDYFGHRSGTNPGSKVLLGHYRRDEVRSWGYRIMVNHKPQKRIPKWLACVVHIPRKKTFLGFFLYANGAYVAELLTYKQLPRIIYNKAFQGCLPTIGQTVSLTEVTYGKEIHSVEMYPGHGGVICRASGTAAVVLRGSEPNLVPLLLPSKEVRLFDNMCHAVFGRRAGVMYNKQRNFSKRSVEENMPHRPKVHSKTKRVSSHPAGGGNGGSPNLLTPLDWRIHPRNCVKTKYWLSGYILRGRQYNRNQTVADLKSKTYSWANRDPVYR” as the sequence, how does the “soluble on expression in E. coli” value read?
Answer: Its value is “not soluble”.

Question: For “MLKLFSAFRKNKIWDFNGGIHPPEMKTQSNGTPLRQVPLAQRFVIPLKQHIGAEGELCVSVGDKVLRGQPLTRGRGKMLPVHAPTSGTVTAIAPHSTAHPSALAELSVIIDADGEDCWIPRDGWADYRTRSREELIERIHQFGVAGLGGAGFPTGVKLQGGGDKIETLIINAAECEPYITADDRLMQDCAAQVVEGIRILAHILQPREILIGIEDNKPQAISMLRAVLADSNDISLRVIPTKYPSGGAKQLTYILTGKQVPHGGRSSDIGVLMQNVGTAYAVKRAVIDGEPITERVVTLTGEAIARPGNVWARLGTPVRHLLNDAGFCPSADQMVIMGGPLMGFTLPWLDVPVVKITNCLLAPSANELGEPQEEQSCIRCSACADACPADLLPQQLYWFSKGQQHDKATTHNIADCIECGACAWVCPSNIPLVQYFRQEKAEIAAIRQEEKRAAEAKARFEARQARLEREKAARLERHKSAAVQPAAKDKDAIAAALARVKEKQAQATQPIVIKAGERPDNSAIIAAREARKAQARAKQAELQQTNDAATVADPRKTAVEAAIARAKARKLEQQQANAEPEQQVDPRKAAVEAAIARAKARKLEQQQANAEPEEQVDPRKAAVEAAIARAKARKLEQQQANAEPEQQVDPRKAAVEAAIARAKARKREQQPANAEPEEQVDPRKAAVEAAIARAKARKLEQQQANAVPEEQVDPRKAAVAAAIARAQAKKAAQQKVVNEDLEHHHHHH”, which “soluble on expression in E. coli” value is on record?
Answer: Its value is “soluble”.

Question: Which “soluble on expression in E. coli” value does the source give for “MGHHHHHHSHMASKKPDKTYEEMVKEVERLKLENKTLKQKVKSSGAVSSDDSILTAAKRESIIVSSSRALGAVAMRKIEAKVRSRAAKAVTEQELTSLLQSLTLRVDVSMEETTVGASGGIGPSSQTETKKRRPRSKSRHRHDHE” here?
Answer: Its value is “not soluble”.

Question: With “MRDNKELTESKLHLDEFSAYLMSIDKSDSTIKTYIEHIQAFAKWFEETNCIDFDPAVITEIDIRDMRSYLQGTRHLKETTINLRLASLKCYFSFLESEKYIKHNPARNIRKIKLQSPNIAKSLDEQTYRALRRHVYRGGNKAHIAMFEIFTRCGVRNFELINIRLTDFDISDRKGTLKIVGKLNKVRYIPLHKDVRDAINNWMEIRKNIKTEYDNLFISERKTPYTRSGIWKIFKKYCEQIGITDVTIHSFRHYFCRTLLKNGVDISVVAKLAGHSSGFVTAQVYTIPRQEELEAAIETLV” as the sequence, how does the “soluble on expression in E. coli” value read?
Answer: The value was “not soluble”.

Question: With “MHKIRVIESTLGYPQKNRMESESYEGVQTYMDMKDGSLIAVQPNKDDLMSQILSPDNLNRAYLQVVRNKGVGGVDRMDFKQLLPYLHEHKSELIESIRIGRYKPNSVRRVDIAKDNGKKRLIGIPTVVDRLIQQAIVQVLSPIYERQFSPSSFGFRPDVVRMLEHHHHHH” as the sequence, how does the “soluble on expression in E. coli” value read?
Answer: Its value is “not soluble”.

Question: With “MQCHVKDEVLYIGKKEFEEPIKSEWVLEMQNTEKYKTIGPTFPDGTINWQCPCMAGGSLVAHRCGNFFRELYICMKSDDTRDPSEKCPNQFVNWAACMQNMSDERREQMRKAMTVDTEELKINPK” as the sequence, how does the “soluble on expression in E. coli” value read?
Answer: Its value is “not soluble”.
